Laboratory results taken from US20220074941A1, “HSP90 COMBINATION THERAPY” (Sloan-Kettering Institute for Cancer Research, priority 2011, published 2022).

B1: NOP14 (protein, UniProt P78316 1-857, looked up)
Nucleolar protein 14: MAKAKKVGARRKASGAPAGARGGPAKANSNPFEVKVNRQKFQILGRKTRHDVGLPGVSRARALRKRTQTLLKEYKERDKSNVFRDKRFGEYNSNMSPEEKMMKRFALEQQRHHEKKSIYNLNEDEELTHYGQSLADIEKHNDIVDSDSDAEDRGTLSAELTAAHFGGGGGLLHKKTQQEGEEREKPKSRKELIEELIAKSKQEKRERQAQREDALELTEKLDQDWKEIQTLLSHKTPKSENRDKKEKPKPDAYDMMVRELGFEMKAQPSNRMKTEAELAKEEQEHLRKLEAERLRRMLGKDEDENVKKPKHMSADDLNDGFVLDKDDRRLLSYKDGKMNVEEDVQEEQSKEASDPESNEEEGDSSGGEDTEESDSPDSHLDLESNVESEEENEKPAKEQRQTPGKGLISGKERAGKATRDELPYTFAAPESYEELRSLLLGRSMEEQLLVVERIQKCNHPSLAEGNKAKLEKLFGFLLEYVGDLATDDPPDLTVIDKLVVHLYHLCQMFPESASDAIKFVLRDAMHEMEEMIETKGRAALPGLDVLIYLKITGLLFPTSDFWHPVVTPALVCLSQLLTKCPILSLQDVVKGLFVCCLFLEYVALSQRFIPELINFLLGILYIATPNKASQGSTLVHPFRALGKNSELLVVSAREDVATWQQSSLSLRWASRLRAPTSTEANHIRLSCLAVGLALLKRCVLMYGSLPSFHAIMGPLQALLTDHLADCSHPQELQELCQSTLTEMESQKQLCRPLTCEKSKPVPLKLFTPRLVKVLEFGRKQGSSKEEQERKRLIHKHKREFKGAVREIRKDNQFLARMQLSEIMERDAERKRKVKQLFNSLATQEGEWKALKRKKFKK
B2: NUP160 (protein, UniProt Q12769 1-1436, looked up)
Nuclear pore complex protein …: MLHLSAAPPAPPPEVTATARPCLCSVGRRGDGGKMAAAGALERSFVELSGAERERPRHFREFTVCSIGTANAVAGAVKYSESAGGFYYVESGKLFSVTRNRFIHWKTSGDTLELMEESLDINLLNNAIRLKFQNCSVLPGGVYVSETQNRVIILMLTNQTVHRLLLPHPSRMYRSELVVDSQMQSIFTDIGKVDFTDPCNYQLIPAVPGISPNSTASTAWLSSDGEALFALPCASGGIFVLKLPPYDIPGMVSVVELKQSSVMQRLLTGWMPTAIRGDQSPSDRPLSLAVHCVEHDAFIFALCQDHKLRMWSYKEQMCLMVADMLEYVPVKKDLRLTAGTGHKLRLAYSPTMGLYLGIYMHAPKRGQFCIFQLVSTESNRYSLDHISSLFTSQETLIDFALTSTDIWALWHDAENQTVVKYINFEHNVAGQWNPVFMQPLPEEEIVIRDDQDPREMYLQSLFTPGQFTNEALCKALQIFCRGTERNLDLSWSELKKEVTLAVENELQGSVTEYEFSQEEFRNLQQEFWCKFYACCLQYQEALSHPLALHLNPHTNMVCLLKKGYLSFLIPSSLVDHLYLLPYENLLTEDETTISDDVDIARDVICLIKCLRLIEESVTVDMSVIMEMSCYNLQSPEKAAEQILEDMITIDVENVMEDICSKLQEIRNPIHAIGLLIREMDYETEVEMEKGFNPAQPLNIRMNLTQLYGSNTAGYIVCRGVHKIASTRFLICRDLLILQQLLMRLGDAVIWGTGQLFQAQQDLLHRTAPLLLSYYLIKWGSECLATDVPLDTLESNLQHLSVLELTDSGALMANRFVSSPQTIVELFFQEVARKHIISHLFSQPKAPLSQTGLNWPEMITAITSYLLQLLWPSNPGCLFLECLMGNCQYVQLQDYIQLLHPWCQVNVGSCRFMLGRCYLVTGEGQKALECFCQAASEVGKEEFLDRLIRSEDGEIVSTPRLQYYDKVLRLLDVIGLPELVIQLATSAITEAGDDWKSQATLRTCIFKHHLDLGHNSQAYEALTQIPDSSRQLDCLRQLVVVLCERSQLQDLVEFPYVNLHNEVVGIIESRARAVDLMTHNYYELLYAFHIYRHNYRKAGTVMFEYGMRLGREVRTLRGLEKQGNCYLAALNCLRLIRPEYAWIVQPVSGAVYDRPGASPKRNHDGECTAAPTNRQIEILELEDLEKECSLARIRLTLAQHDPSAVAVAGSSSAEEMVTLLVQAGLFDTAISLCQTFKLPLTPVFEGLAFKCIKLQFGGEAAQAEAWAWLAANQLSSVITTKESSATDEAWRLLSTYLERYKVQNNLYHHCVINKLLSHGVPLPNWLINSYKKVDAAELLRLYLNYDLLEEAVDLVSEYVDAVLGKGHQYFGIEFPLSATAPMVWLPYSSIDQLLQALGENSANSHNIALSQKILDKLEDYQQKVDKATRDLLYRRTL

Assays:
[1] = test system: Hsp90 complexes in Mia-PaCa-2 cell extract; experiment: Nano-LC-MS/MS of PU-beads pull-downs; format: binding, human; settings: protein identified in PU-beads pull-down of Mia-PaCa-2 cell extract; QSTAR-Elite QTof MS
How it was run: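 They came from PU-bead pull-downs of pre-cleared lysates (control beads, overnight, 4 °C), eluted by boiling in 2% SDS, gel-separated and run by data-dependent nano-ESI QTof MS/MS.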

[2] = test system: Hsp90 complexes in K562 cell extract; experiment: Nano-LC-MS/MS of PU-beads pull-downs; format: binding; settings: protein identified in PU-beads pull-down of K562 cell extract, QSTAR-Elite QTof MS
How it was run: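 Proteins were identified by data-dependent nano LC-MS/MS (QTof, ESI) and Mascot searching (p<0.05), then reported as spectral counts and coverage via Scaffold. Inputs were PU-bead versus control-bead pull-downs from lysate pre-cleared with control beads overnight at 4 °C, eluted by boiling in 2% SDS.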

| Molecule | Number of Assigned Spectra, Mia-Paca 2 [1] | Number of Assigned Spectra, K562 Prep 1 [2] | Number of Assigned Spectra, K562 Prep 2 [2] |
| --- | --- | --- | --- |
| B1 | 0 | 9 | 2 |
| B2 | 0 | 13 | 1 |
